From article PMC12785664, “Structure-Functional Examination of Cysteine Synthase A (CysK) from Limosilactobacillus reuteri LR1” (International Journal of Molecular Sciences, 2025) come the findings set out here.

Data set [1] has as its target T1, LreCysK (cysteine synthase A from Limosilactobacillus reuteri LR1, His-tag at N-terminus) (Limosilactobacillus reuteri, UniProt A0ABF7PP24).
T1 construct: gene cysK
T1 sequence (A0ABF7PP24 2-307): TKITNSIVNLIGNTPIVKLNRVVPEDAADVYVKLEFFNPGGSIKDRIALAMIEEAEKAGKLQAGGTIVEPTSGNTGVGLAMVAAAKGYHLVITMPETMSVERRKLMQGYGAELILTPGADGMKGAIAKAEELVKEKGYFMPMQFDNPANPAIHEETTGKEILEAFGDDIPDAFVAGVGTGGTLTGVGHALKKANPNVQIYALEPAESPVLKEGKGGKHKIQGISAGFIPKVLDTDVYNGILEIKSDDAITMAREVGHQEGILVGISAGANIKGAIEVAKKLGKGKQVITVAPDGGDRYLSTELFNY
In words: differential scanning calorimetry, with versus without added PLP. In kind it is binding. The following applies: 1.0 mM PLP, 0.1 M Na-phosphate pH 7.0, 1 °C/min; two calorimetric domains, domain 1 given. From the text:
differential scanning calorimetry, with versus without added PLP on LreCysK (cysteine synthase A from Limosilactobacillus reuteri LR1, His-tag at N-terminus)
(DSC measures the heat that a sample takes up or gives off during a temperature scan.)

Data set [2] concerns CC(=O)OC[C@H](N)C(=O)O. The data set is described as follows: purified protein. As to conditions: saturating sulfide, 5 µM PLP, 10 mM HEPES pH 7.5.
Source text: HILIC HPLC determination of cysteine, nonlinear regression on LreCysK (cysteine synthase A from Limosilactobacillus reuteri LR1, His-tag at N-terminus)
For data set [3], the target named is Cysteine synthase A (CysK) from Limosilactobacillus reuteri LR1 with His-tag on the N-terminus (Limosilactobacillus reuteri LR1). The data set is described as follows: SEC; analytical gel filtration, HiLoad 16/600 Superdex 200 pg, 1 mg of sample, calibrated with Gel Filtration Calibration Kit HMW; monomer to dimer. On the technique in general: In gel filtration, larger molecules generally elute earlier.

Regarding `Cc1ncc(COP(=O)(O)O)c(C=O)c1O` [Pyridoxal-5 phosphate], in data set [1], the “Tm, °C” value turned out to be 80.1 °C.

As usually defined, the Km is the substrate concentration at which the rate is half of its maximum. As usually defined, the kcat is the number of substrate molecules converted per active site and unit of time at saturation. As a reminder, the kcat/Km is the second-order rate constant that governs catalysis at low substrate concentration. Regarding “LreCysK (cysteine synthase A from Limosilactobacillus reuteri LR1, His-tag at N-terminus) (Limosilactobacillus reuteri)”, in data set [2], the Km is reported as 3.8 ± 0.6 mM, the kcat was found to be 681 ± 45 s⁻¹ and the specificity constant (kcat/Km) was 179000 M⁻¹ s⁻¹.

As usually defined, the stoichiometry N is the number of molecules, sites or subunits per partner or assembly. In data set [3], “Cysteine synthase A (CysK) from Limosilactobacillus reuteri LR1 with His-tag on the N-terminus (enzyme)” registered a stoichiometry N of 2.
